The target in data set [1] is RPA complex (Homo sapiens) (UniProt P27694+P15927+P35244). Briefly: smFRET. The settings on record: smFRET: 25 mM Tris-HCl pH 7.5, 0.5 mM EDTA, 10% glycerol, 50 or 150 mM KCl (temperature not stated), pull-down: 35 mM Tris-HCl pH 7.5, 10% glycerol, 0.01% ….
In data set [2] the target is CST complex (CTC1-STN1-TEN1) (Homo sapiens) (UniProt Q2NKJ3+Q9H668+Q86WV5). Description: smFRET. The settings on record: smFRET: 25 mM Tris-HCl pH 7.5, 0.5 mM EDTA, 10% glycerol, 50 or 150 mM KCl (temperature not stated), pull-down: 35 mM Tris-HCl pH 7.5, 10% glycerol, 0.01% ….
CST complex (CTC1-STN1-TEN1) (Homo sapiens), sequence (Q2NKJ3 whole entry, chain 1 of 3): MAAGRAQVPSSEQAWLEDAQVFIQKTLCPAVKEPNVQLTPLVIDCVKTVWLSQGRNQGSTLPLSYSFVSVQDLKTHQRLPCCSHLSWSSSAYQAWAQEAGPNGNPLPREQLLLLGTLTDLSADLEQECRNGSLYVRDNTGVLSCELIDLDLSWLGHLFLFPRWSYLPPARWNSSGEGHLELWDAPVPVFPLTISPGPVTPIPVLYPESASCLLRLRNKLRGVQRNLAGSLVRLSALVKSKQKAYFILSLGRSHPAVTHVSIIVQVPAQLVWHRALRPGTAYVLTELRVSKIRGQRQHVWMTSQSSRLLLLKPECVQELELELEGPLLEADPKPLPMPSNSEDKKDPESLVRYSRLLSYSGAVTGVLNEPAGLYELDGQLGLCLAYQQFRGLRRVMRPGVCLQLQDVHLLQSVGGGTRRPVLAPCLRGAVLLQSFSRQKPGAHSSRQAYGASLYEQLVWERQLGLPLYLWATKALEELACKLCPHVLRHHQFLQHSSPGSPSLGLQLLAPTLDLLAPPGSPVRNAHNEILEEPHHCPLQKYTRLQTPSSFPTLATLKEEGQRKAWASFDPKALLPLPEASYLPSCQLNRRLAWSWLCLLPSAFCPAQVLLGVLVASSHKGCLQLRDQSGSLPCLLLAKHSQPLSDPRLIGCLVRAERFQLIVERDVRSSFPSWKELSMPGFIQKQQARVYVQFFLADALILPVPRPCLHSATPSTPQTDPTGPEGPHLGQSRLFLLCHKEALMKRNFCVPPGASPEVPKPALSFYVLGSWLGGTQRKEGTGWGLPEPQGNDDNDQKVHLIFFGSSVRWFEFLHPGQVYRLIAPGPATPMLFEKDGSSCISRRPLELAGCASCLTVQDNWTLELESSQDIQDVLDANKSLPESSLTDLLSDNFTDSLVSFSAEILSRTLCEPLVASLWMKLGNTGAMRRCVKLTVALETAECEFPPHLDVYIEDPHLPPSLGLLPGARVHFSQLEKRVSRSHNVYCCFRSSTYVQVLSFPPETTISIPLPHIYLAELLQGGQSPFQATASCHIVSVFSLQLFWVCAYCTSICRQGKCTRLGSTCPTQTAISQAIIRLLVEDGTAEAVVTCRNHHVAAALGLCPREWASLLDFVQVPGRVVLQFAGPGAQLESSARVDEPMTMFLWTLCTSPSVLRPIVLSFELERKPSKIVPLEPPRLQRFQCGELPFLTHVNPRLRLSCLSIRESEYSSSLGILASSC
CST complex (CTC1-STN1-TEN1) (Homo sapiens), sequence (Q9H668 whole entry, chain 2 of 3): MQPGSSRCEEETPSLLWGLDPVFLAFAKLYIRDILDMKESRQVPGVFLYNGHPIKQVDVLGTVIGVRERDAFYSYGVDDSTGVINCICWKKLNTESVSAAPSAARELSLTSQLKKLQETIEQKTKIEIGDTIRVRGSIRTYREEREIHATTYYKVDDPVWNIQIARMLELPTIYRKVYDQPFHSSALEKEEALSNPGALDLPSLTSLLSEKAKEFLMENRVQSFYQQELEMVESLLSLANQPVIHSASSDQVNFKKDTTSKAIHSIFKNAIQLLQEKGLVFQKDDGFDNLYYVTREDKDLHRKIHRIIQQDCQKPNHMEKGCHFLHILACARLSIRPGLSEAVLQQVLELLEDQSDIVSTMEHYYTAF
CST complex (CTC1-STN1-TEN1) (Homo sapiens), sequence (Q86WV5 whole entry, chain 3 of 3): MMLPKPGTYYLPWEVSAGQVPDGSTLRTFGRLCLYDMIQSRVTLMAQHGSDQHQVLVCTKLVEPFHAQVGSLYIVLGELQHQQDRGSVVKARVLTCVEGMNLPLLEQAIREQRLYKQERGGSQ

For one sequence, Kd results are on record in publication PMC8571288.

RPA complex (Homo sapiens), sequence (P27694 whole entry, chain 1 of 3): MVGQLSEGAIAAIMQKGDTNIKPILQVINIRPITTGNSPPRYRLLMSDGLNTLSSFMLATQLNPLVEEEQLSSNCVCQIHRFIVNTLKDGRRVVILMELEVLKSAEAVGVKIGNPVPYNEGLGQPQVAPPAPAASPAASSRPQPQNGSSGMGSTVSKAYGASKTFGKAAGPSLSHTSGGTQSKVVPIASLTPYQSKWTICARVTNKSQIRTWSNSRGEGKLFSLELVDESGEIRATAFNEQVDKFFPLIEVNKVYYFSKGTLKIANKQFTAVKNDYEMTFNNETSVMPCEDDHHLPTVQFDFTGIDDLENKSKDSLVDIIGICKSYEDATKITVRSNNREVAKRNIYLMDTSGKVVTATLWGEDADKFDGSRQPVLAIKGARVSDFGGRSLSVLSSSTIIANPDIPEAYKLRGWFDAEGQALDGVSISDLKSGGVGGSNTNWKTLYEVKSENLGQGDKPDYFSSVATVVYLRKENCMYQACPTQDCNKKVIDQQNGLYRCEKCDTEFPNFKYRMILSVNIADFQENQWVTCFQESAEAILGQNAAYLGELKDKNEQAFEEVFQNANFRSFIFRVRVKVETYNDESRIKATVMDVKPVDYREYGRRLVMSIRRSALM
RPA complex (Homo sapiens), sequence (P15927 whole entry, chain 2 of 3): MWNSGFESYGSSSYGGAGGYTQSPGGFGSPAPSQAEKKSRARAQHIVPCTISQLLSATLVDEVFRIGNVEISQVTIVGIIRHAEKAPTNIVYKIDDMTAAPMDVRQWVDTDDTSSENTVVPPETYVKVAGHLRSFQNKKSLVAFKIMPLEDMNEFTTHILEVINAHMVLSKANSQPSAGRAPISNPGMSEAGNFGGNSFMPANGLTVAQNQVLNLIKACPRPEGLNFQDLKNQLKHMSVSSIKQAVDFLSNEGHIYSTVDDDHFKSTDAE
RPA complex (Homo sapiens), sequence (P35244 whole entry, chain 3 of 3): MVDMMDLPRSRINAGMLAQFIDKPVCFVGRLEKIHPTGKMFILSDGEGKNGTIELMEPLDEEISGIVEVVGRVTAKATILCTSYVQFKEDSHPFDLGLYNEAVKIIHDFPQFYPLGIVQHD

As to “ACGCTGCCGAATTCTACCAGTGCCTTGCTAGGACATCTTTGCCCACCTGCAGGTTCACCC / GGGTGAACCTGCAGGTGGGCAAAGA [35-nt ssDNA overhang (Oligo 5+6)]”, the Kd in data set [1] (50 mM KCl, Hill slope 3.14) was 0.12 nM; in data set [1] (150 mM KCl, Hill slope 2.83) it was 0.11 nM; in data set [2] (50 mM KCl, Hill slope 2.74) it was 0.12 nM; in data set [2] (150 mM KCl, Hill slope 1.4) it was 0.29 nM.
